Experimental data taken from patent US20100235935.
Changes are numbered by the printed parent chain.

Assays:
[1] = test system: T1, pladin mutant A5 (Lys13→Ala)
T1 sequence: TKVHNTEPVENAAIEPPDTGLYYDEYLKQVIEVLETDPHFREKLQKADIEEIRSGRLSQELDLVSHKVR

[2] = test system: T2, pladin mutant A4 (Lys28→Ala)
T2 sequence: T1 sequence with A13R, K28A

recombinant nesfatin-1 = molecular target: T3, recombinant nesfatin-1 (UniProt P81117)
T3 sequence: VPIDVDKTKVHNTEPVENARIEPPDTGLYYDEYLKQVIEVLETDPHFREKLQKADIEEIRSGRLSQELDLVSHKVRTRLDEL

acetylated rPladin = test system: T4, acetylated rPladin
T4 sequence: T1 sequence with A13R

[3] = test system: T5, recombinant pladin (plasma anti-diabetic nucb2 peptide)
T5 sequence: T1 sequence with A13R

plasmin, sequence (P00747 20-580): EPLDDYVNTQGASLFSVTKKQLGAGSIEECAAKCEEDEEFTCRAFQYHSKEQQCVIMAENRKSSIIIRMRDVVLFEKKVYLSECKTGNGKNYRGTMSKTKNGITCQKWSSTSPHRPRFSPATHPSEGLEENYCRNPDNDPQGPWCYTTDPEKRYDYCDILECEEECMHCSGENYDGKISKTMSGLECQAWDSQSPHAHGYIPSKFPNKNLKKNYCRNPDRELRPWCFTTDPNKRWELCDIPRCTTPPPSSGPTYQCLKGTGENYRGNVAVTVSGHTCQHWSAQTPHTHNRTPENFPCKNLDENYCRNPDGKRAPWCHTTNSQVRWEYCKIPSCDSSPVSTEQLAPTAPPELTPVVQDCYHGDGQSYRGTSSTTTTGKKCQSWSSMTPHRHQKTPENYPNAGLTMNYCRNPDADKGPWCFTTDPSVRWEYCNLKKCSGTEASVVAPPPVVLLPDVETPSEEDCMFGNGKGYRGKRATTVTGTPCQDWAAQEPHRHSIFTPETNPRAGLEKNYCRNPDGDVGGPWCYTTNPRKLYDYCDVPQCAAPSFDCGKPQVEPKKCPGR
plasmin, sequence (P00747 581-810): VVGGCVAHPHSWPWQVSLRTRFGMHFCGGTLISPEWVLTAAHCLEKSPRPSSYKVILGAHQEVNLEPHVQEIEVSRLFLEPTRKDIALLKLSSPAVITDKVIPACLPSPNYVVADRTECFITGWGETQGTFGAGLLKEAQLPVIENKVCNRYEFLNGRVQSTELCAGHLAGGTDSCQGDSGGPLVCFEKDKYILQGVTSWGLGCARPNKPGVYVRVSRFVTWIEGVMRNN

Substance: plasmin
- plasmin proteolysis in vitro [1]: resistant to plasmin proteolysis
- plasmin proteolysis in vitro [2]: resistant to plasmin proteolysis
- digestion by plasmin in vitro (recombinant nesfatin-1): Nesfatin-1 was completely digested by plasmin within 2 hours
- plasmin proteolysis in vitro (acetylated rPladin): resistant to plasmin proteolysis
- degradation on incubation with plasmin in vitro [3]: when rPladin was incubated with plasmin, it was rapidly degraded
